Source: the domain aggregation screens of Martell et al. (2025)

Assay: soluble fraction after stress (log2 fold change); higher = more stays soluble; pooled small domains, quantitative proteomics
Conditions: stress: 50 degC
Procedure, shortened: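 Pooled custom libraries of small protein domains were measured in a high-throughput format, with quantitative proteomics as the read-out. Each library was stressed at 50°C. Aggregation propensity is given as the base-two logarithm of the fold change in how much of each protein stays soluble after the stress. Higher values mean a larger share of the protein remains in solution.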

Sequence	soluble fraction (log2)
HMGPFYFDQDGKAYSGLLNRNGEILYFADPFNAAVKNTTKTIDGKTYTFNQNGRATSIDGIPLEPP	0.142
HMSDLGEIEKIVDEVLAENITKVQEYKDGKKGLMGMFMGQIMKKSGGKADPKIANQLLTEKL	0.114
HMGTSRVQSILFDQSQWTINRAVHWLNTHHFISTKIDKTDKYLRFRQFDPNPDSHHATKRTSQGITFILE	-3.51
HMQTPPGRYRHYKGGLYEVIATARHSETLEPMTVYRALYGEQGLWVRPAAMFAEDITLEGVRQPRFARI	-1.91
HMQYALEDDLDSAIKLLTGKGLSGTVAWGWSDTYINVGKKSYSMEFIAKMLLRLGEGSRVTIQVDPA	-4.68
HMGNFGDLLKILLDEKELSMGELSKKSGIDKSTISRIANNKQKPNINHLEKMAIHLNINLEELLKASGYEF	-0.364
HMIAKIEGQISYVGNRFLIVDVSGVGYKLFVTNEAISLSKVEESIKLWVHTAVRENSIDLYG	-0.7
HMKAQVKSVLDDIPGIGQTRRKALMRYFKSLEKIREASVEELKEADAMNERAAQSVYAFFHK	-0.471
HMAADDGSARAEQLREMYSLISGLDKLDKAIILMWLDERSYDEIAEVTGFTRNNVATRLHRIKSRLARQSN	-0.783
HMKTKKYKGVYKDSKGKIYFQIELGVDPITGKRIQKKGRKNQQGLPFNSFKEAYEEILRLKHEFVNSTIN	-2.69
HMLRLLEIIAGNEVSKEINSQVIKYYKALKNKKIEEINNLTPSYNKLIISFDLKKKNFREMKKIIEDISIN	-0.162
HMQSYSTIIGVIELRLSGIGYRTTKARYGIGNSTVTLIMNRFKETGFTLDDLKTMEPTKVEALFYPP	-0.873
HMQSLPFSFAKRHGVLLKSINHLHGEAVYRIGANPLSLSEVQRYAGVPLKLSSITVEKFDRLLQETYEHD	-1.14
HMFDLENIRLTLARRLNVAAHLRPKYVAGFTLLLKQNFPEQNAEDLLNRLEHNQWLKVNQREIEYSPRLLM	-1.58
HMGKEYERALQQVTKSEIDSDEKLQQQMDALVNSPRISDKEDAWALLLVKKLRNEGVEWDELPDVLSERVQ	0.0796
HMEQQEFIVPHDSEGQRLDLFLVSVLGTHSRSQIRKLIVNGHVKLENRAPRPNLPVRAGESVVVSMPEPT	0.121
HMGPGDTTIPTTIIGMSLEEARNELSAAGLLVARIIPVDSNSRTGTVLKITPDAGSIIKAGSGVELEIAS	0.0765
HMSLGTDVVPDFTGKGIKEAKTEFAAYSEGELYIIGEGEKVKEQFPLPGEKVNKNSDLILYV	0.101
HMLAKYEIIKQDIIQMIEEKKFKPGDKIYSEGELKKIYNVSSTTVVRALQDLVLSGYLIRKQGEGTYVRK	-1.23
HMLSFSEAERAVLSLLNRRPDLSAKALASELAVSARTVERYLQSLQQKGKLLRVGAKKGGYWQV	-0.478
HMKRDYELPAFIETYLKKNHVAIDTKSAAMIAEHIGADLSRLISELDKVMISLPDDDRRVTPDVVEREI	-0.00533
HMSVTMPNLVGLDEQTAVTRINSSNLSYGSTNYVHSDHEAGVVFKQSTPAYTEVDEHTKIYIWVSLGPEE	-0.0912
HMEWTDHLAEELRSLAVEGEHLEIIANKLGISPGSARAKLVNLNIYNDYQLAHIERLEADTLQAK	-0.318

Sequence	soluble fraction (log2)
HMTDAYEVLDLNREASDEEIKKRYRELIREHHPDTLIAKGVPQEFVDLANDKMAAINAAYDRIEKDRGL	0.279
HMYTVVVGDSPSLIADKTGVPLKELTAMNPNLSDNFLPGKQLL	0.000825
HMMTDEEFLRIAGYMKQRYGIDLGQKKVIMNGRLENHIKSGGWSSFHAFMNDLEKDSSGKLEKELVNLLTT	0.0314
HMLVKKYTEEETGRQAELSKQLAELSKAYYNTGNSMVDDAVFDKLRDELSSLEKESGFAYDISPNVS	-0.953
HMLPTLSLSVKIYKGEGDIALDLEEMVKAFDQLNFGSYPFSEKGVHGTNIVIRGNDKKHMEEAEDKVRSLT	-0.725
HMLAERKERDKAELKELILDAAKKILLKNGQEGLSIRKIATTVEYSPATIYLYFKDKDEILHELMEMG	0.317
HMSDRQLKRQANILYTTRKLASKVGYDGLTMRGLAEASEVSPKTLYNLFSSKDELLAAALEDLVGIV	0.282
HMLRISEEVWALVEKTLREDWSPEQVSGKLKASGISVSHERIYQHIYADKRVGGTLWTHLRR	-2.3
HMLILTWNYPYEYPMMMRSFLQEIGISRTFLAHIKSNGELLINGRHEIVLKTLQPGDVLTMVIPPSG	-1.71
HMQSLDGPSRAAIVLMAIGPDVAGELIKSFSPAEAQKVSSLLATVRSLDREVMIEVLDSFKNITEH	-0.323
HMKAQVKSVLDEIPGVGPTRRKALMKHFTSIEEIKQAEFETLLEAEGMNRAAAQSVYDFFHN	-0.138
HMNITFAENIKQFRKAKSMSMEELGKRLGKAKSSISAWENGKRTPKINELKSISEALGVTISQLLGF	-1.13
HMDDDDPDQEIAQYYEKLRAMNPDEETKQKLSDEINKLSKMMYSSQEAMVSRNYLDTVFSLPWHQF	-0.0959
HMNVKVYATIDGDNFKVSGLKPGSNVRVYSSNGSAVFEKKAGDSEMIIPAGAWTKGIYVISADDQSIKVT	-0.109
HMYVEVPNFIGVPLVKVQSELASLGLVFNKSVVYQTSPYLKGNILDQRPLPGEVVPLNTEMSFTVSSGPA	0.453
HMDENVVLRKVAREAFVIEYVRGIRAIDPGIGGPKLWLMYKREFGDNDTVGRDTFEDILDRNNLKVRI	-3.26
HMGFLTGNTQGEVNRKTKNQMVNIFLPTTPNPTSGFLLFVPKKDILRLTMTVEEGIKMIISAGMLTPS	-0.173
HMQDSIYYAQYRINIRNMPSSEGMVISRASVGEALEVLDWQEQWSKVRKQSGVEGYVASRLLTK	-1.24
HMDTGPISGQVEADRVEVHGHLDGKISAQNVVVGQTGVVKGDIEFGENLRTEEGADIEGYIK	-0.149
HMFDVRWEQGYALAAAYAQEYGNLDVPRDYKTADGKKLGRWIQSQEQAYEQKKLSEEQISRLEMIGMQWG	-0.604
HMYAVQKGDTLKKIADQFGISVDTIKWANDMKGDALSIDQELKIP	0.057
HMVSRQINVIPDDLAGLRLDQALAHLFPQHSRSRLKEWLLEDIIIVQGGPKRPKDIVSGGEIVEIKL	-0.0906
HMVEQVEISILPGEYSDTISQKLLDAGLIDDKAAFSKYINDTNVDNLIQPGTFTVPKGASYEEVAKILT	0.212

Sequence	soluble fraction (log2)
HMGQMGHAVVAKTDLAVGTPLTRDLVAVREVPVEWLHSSAITPEQFERAAGAVLAQPARGGEPLVWSQLEE	0.0906
HMKQLVVVPRVVSLSEGKAREDVGDRGLVVDRVEMDTLRTPYENTVTRQEPAADSRVPVGTRVTLWISPGV	0.261
HMTGEERRMNTADLYRRRGMELFKRKIYVDAIDSLKVSLEYEDNATTRYYLDLATKRYQDLKIS	-1.12
HMNQILDFTREVKNLPEQDKIKIVEALWSIIYSNKDADIYETNLMRRLAGLLYIDNKTMGDIKEKIKQNL	-0.601
HMKQETLNEIGTKIRKLRESKNLSIQEFADKLEMEYNNVIRIEKGRTNFTIGTLVKIANSLEVNLKDI	-0.78
HMEDVDTAALEKVIATAKGLNKNDYTATTWTTMQAALTNAEKALEAKKSQTSVDEAAKTLQAAIDGLKKAS	0.215
HMDSGLLSAREREVAGLVLSGMTYAEIGEAIFISPRTAEHHIARIRRRLGATSRTDLIAKLQAIVGID	-3.45
HMGHLSNENAGRLLDRVLNDKIHAIMLGHLSKENNMPELAHEAVRMEITMGESRYKADDFPIYVA	0.11
HMVRSLADQVYERLRRNIVSGDLAPNARIVELDIAAQMGTSQGPVREALQRLEREGLVQRRAHSATFVTD	-0.279
HMKMLKAPIPGTIIEVKVNPGQTVNDGDVAVVLEAMKMESDIHFNSSGKVKKIHVNKGDSVQEGDDLIELE	0.0938
HMKNHSTFKSVLSNIEFPINERISGHAIQNPILGLIKADHPNFSSDQYIAISELNFYREKYISNYLLTEI	-3.35
HMQNGNYVVQRQDSLWSIAARISGQTHQPIGEVMNHIKALNEHAFVGGNVNRLRTGTNLNLG	-0.156
HMNVNSMIGKEGRVIEDIDNFNETGRIIVDGMEWTARAVNEQSITSGQKVVIREIQGVKAMVVPM	0.187
HMSAIEIDAEKILNYLTDRGGKMPYGDTTAPEVIKDKFNISKAAFKRALGFLLRSNKIEQIDGWTYI	-0.317
HMIPYQDPLPKGAEESLLSKYPGFEITGVHFVNDTNFIGYKVRLERGEDREEISLDVNGKFL	0.0829
HMAKSDLNYLDFKSKLEAGEIAKASVIRNEDTFKVTLQNGEVYNVTSPDYEDFRKELLEAGVDIQVSK	0.114
HMKRPEPESPEAERRSQRAADWLVRRDRGLTAAEQDEFLQWLAIDPRHGEWFALHRSVVGEFSA	-0.192
HMHTTIIVASRDIAAGSVLTSHDLSSVAWVGGAVPKGSYTAADLAVGKTAFTAFQQGEPILESRLAS	-0.00332
HMRLDPENFYIRAVTYYRNGDWQRALSQLDEAIKLGTAIEYPALQARIYLEQGMRDEFIAASEK	-1.71
HMDIVQLSEKINVMKMEIPAQAIGKTVLEVNFRARFDLNIIAIENGGKLVEVIKPDYVFREGDILFLSGS	-1.16
HMADKHVAAALLKLMDHLVGGRQYAFMKGRLTINKKVVLEATEVSAYRRGTGLSDADWQQRYE	-1.97
HMAIDVQELARTRLRSLRTTLGYSLDELAARTHLSPSTISRLETGKRSLSLDVVVPLAQALHVSLDVLFEA	-2.68
HMQNYLLFEEAKNIVNTLNLTNEKDWSEFIKKDFTYKNQIPIFPNQYYKHKGWVDWNDWLGINK	-1.56
